Source: patent publication US20200048328A1 (Bristol-Myers Squibb, published 2020)

What was measured:
rat serum albumin = biological target: T1, rat serum albumin (rat, UniProt P02770 25-608); assay: SPR, albumin immobilized, Adnectin 250 nM
T1 construct: also called Rat SA; RSA

mouse serum albumin [1] = biological target: T2, mouse serum albumin (mouse, UniProt P07724 25-608); assay: SPR, albumin immobilized, Adnectin 250 nM
T2 construct: also called MSA; MuSA

rhesus serum albumin [2] = biological target: T3, rhesus serum albumin (rhesus, UniProt Q28522 17-600); assay: SPR, albumin immobilized, Adnectin 250 nM
T3 construct: also called RhSA; Rh-SA

human serum albumin [3] = biological target: T4, human serum albumin (human, UniProt P02768 25-609); assay: SPR, albumin immobilized, Adnectin 250 nM
T4 construct: immobilized on chips or coated on plates elsewhere; also called HSA; HuSA

mouse serum albumin [4] = biological target: T2, mouse serum albumin; assay: SPR, albumin immobilized, HBSP pH 7.4
rhesus serum albumin [5] = biological target: T3, rhesus serum albumin; assay: SPR, albumin immobilized, HBSP pH 7.4
human serum albumin [6] = biological target: T4, human serum albumin; assay: SPR, albumin immobilized, HBSP pH 7.4
mouse serum albumin [7] = biological target: T2, mouse serum albumin; assay: direct binding ELISA, albumin coated
rhesus serum albumin [8] = biological target: T3, rhesus serum albumin; assay: direct binding ELISA, albumin coated
human serum albumin [9] = biological target: T4, human serum albumin; assay: direct binding ELISA, albumin coated
human PCSK9 [10] = biological target: T5, human PCSK9 (human, UniProt Q8NBP7 31-692); assay: PCSK9:EGFA FRET 1, competition
T5 construct: also called hPCSK9; huPCSK9

mouse serum albumin [11] = biological target: T2, mouse serum albumin; assay: SPR, albumin immobilized, acetate pH 5.5
rhesus serum albumin [12] = biological target: T3, rhesus serum albumin; assay: SPR, albumin immobilized, acetate pH 5.5
human serum albumin [13] = biological target: T4, human serum albumin; assay: SPR, albumin immobilized, acetate pH 5.5
human PCSK9 [14] = biological target: T5, human PCSK9; assay: PCSK9:LDLR FRET, competition
mouse serum albumin [15] = biological target: T2, mouse serum albumin; assay: SPR, albumin immobilized;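 further: biacore SPR with human, rhesus or mouse serum albumin amine-coupled to the chip (about 1200 RU), 3 min association, 6-10 min dissociation, reference-subtracted traces fitted with a 1:1 model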
rhesus serum albumin [16] = biological target: T3, rhesus serum albumin; assay: SPR, albumin immobilized;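 further: biacore SPR with human, rhesus or mouse serum albumin amine-coupled to the chip (about 1200 RU), 3 min association, 6-10 min dissociation, reference-subtracted traces fitted with a 1:1 model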
human serum albumin [17] = biological target: T4, human serum albumin; assay: SPR, albumin immobilized;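 further: biacore SPR with human, rhesus or mouse serum albumin amine-coupled to the chip (about 1200 RU), 3 min association, 6-10 min dissociation, reference-subtracted traces fitted with a 1:1 model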
human PCSK9 [18] = biological target: T5, human PCSK9; assay: BLI (Octet), biotinylated PCSK9 on tips, no HSA
human PCSK9 [19] = biological target: T5, human PCSK9; assay: BLI (Octet), biotinylated PCSK9 on tips, tandem in complex with excess HSA
human PCSK9 [20] = biological target: T5, human PCSK9; assay: PCSK9:EGFA FRET 2, competition
mouse serum albumin [21] = biological target: T2, mouse serum albumin; assay: SPR, albumin immobilized, acetate pH 7.4
rhesus serum albumin [22] = biological target: T3, rhesus serum albumin; assay: SPR, albumin immobilized, acetate pH 7.4
human serum albumin [23] = biological target: T4, human serum albumin; assay: SPR, albumin immobilized, acetate pH 7.4
mouse serum albumin [24] = biological target: T2, mouse serum albumin; assay: SPR, albumin immobilized, acetate pH 7.4; remark: listed apart in the source
rhesus serum albumin [25] = biological target: T3, rhesus serum albumin; assay: SPR, albumin immobilized, acetate pH 7.4; remark: listed apart in the source
human serum albumin [26] = biological target: T4, human serum albumin; assay: SPR, albumin immobilized, acetate pH 7.4; remark: listed apart in the source
mouse serum albumin [27] = biological target: T2, mouse serum albumin; assay: SPR, albumin immobilized, acetate pH 5.5; remark: listed apart in the source
rhesus serum albumin [28] = biological target: T3, rhesus serum albumin; assay: SPR, albumin immobilized, acetate pH 5.5; remark: listed apart in the source
human serum albumin [29] = biological target: T4, human serum albumin; assay: SPR, albumin immobilized, acetate pH 5.5; remark: listed apart in the source
mouse serum albumin [30] = biological target: T2, mouse serum albumin; assay: SPR, albumin immobilized, HBSP pH 7.4; remark: listed apart in the source
rhesus serum albumin [31] = biological target: T3, rhesus serum albumin; assay: SPR, albumin immobilized, HBSP pH 7.4; remark: listed apart in the source
human serum albumin [32] = biological target: T4, human serum albumin; assay: SPR, albumin immobilized, HBSP pH 7.4; remark: listed apart in the source

B1: 5963_E02.PS5-2 (designed binder)
chain: MGVSDVPRDLEVVAATPTSLLISWDAPAVTVRYYRITYGREVQKYSDLGPLYIYQEFTVPGSKSCATISGLKPGVDYTITVYAVTGSGESPASSKPISINYRTPHHHHHH
Rat serum albumin
  koff: 0.00076 s⁻¹
Mouse serum albumin [1]
  koff: 0.000461 s⁻¹
Rhesus serum albumin [2]
  koff: 0.000284 s⁻¹
Human serum albumin [3]
  koff: 0.000228 s⁻¹

B2: 5963_F03.PS5-2 (designed binder)
chain: MGVSDVPRDLEVVAATPTSLLISWDAPCVTVRYYRITYGREVQKYSDLGPLYIYQEFTVPGSKSTATISGLKPGVDYTITVYAVTGSGESPASSKPISINYRTPHHHHHH
Rat serum albumin
  koff: 0.000825 s⁻¹
Mouse serum albumin [1]
  koff: 0.000504 s⁻¹
Rhesus serum albumin [2]
  koff: 0.000312 s⁻¹
Human serum albumin [3]
  koff: 0.000251 s⁻¹

B3: PCSK9-PKE2 tandem 4472_F08 (designed binder)
PCSK9 domain: MGVSDVPRDLEVVAATPTSLLISWDAPAEGYGYYRITYGETGGNSPVQEFTVPVSKGTATISGLKPGVDYTITVYAVEFDFPGAGYYHRPISINYRTE
PKE2 domain: GVSDVPRDLEVVAATPTSLLISWDAPAVTVRYYRITYGREVQKYSDLGPLYIYQEFTVPGSKSTATISGLKPGVDYTITVYAVTGSGESPASSKPISINYRTEHHHHHH
modifications: The real molecule is ONE polypeptide: PCSK9 domain, undisclosed linker F, PKE2 domain. It is given here as two chains because the linker letters are unknown.
notes: not shown: The inter-domain linker
Mouse serum albumin [4]
  Kd: 26.3 nM
  koff: 0.000359 s⁻¹
  kon: 13700 M⁻¹ s⁻¹
Rhesus serum albumin [5]
  Kd: 71.7 nM
  koff: 0.000346 s⁻¹
  kon: 4820 M⁻¹ s⁻¹
Human serum albumin [6]
  Kd: 83.8 nM
  koff: 0.000301 s⁻¹
  kon: 3590 M⁻¹ s⁻¹
Mouse serum albumin [7]
  EC50: 7.3 nM
Rhesus serum albumin [8]
  EC50: 35.2 nM
Human serum albumin [9]
  EC50: 55.4 nM
Human PCSK9 [10]
  IC50: 7.88 nM
Mouse serum albumin [11]
  Kd: 137 nM
  koff: 0.0015 s⁻¹
  kon: 11000 M⁻¹ s⁻¹
Rhesus serum albumin [12]
  Kd: 110 nM
  koff: 0.000818 s⁻¹
  kon: 7400 M⁻¹ s⁻¹
Human serum albumin [13]
  Kd: 43.9 nM
  koff: 0.000489 s⁻¹
  kon: 11100 M⁻¹ s⁻¹
Human PCSK9 [14]
  IC50: 2.5 nM
Mouse serum albumin [15]
  Kd: 25.5 nM
  koff: 0.000344 s⁻¹
  kon: 13500 M⁻¹ s⁻¹
Rhesus serum albumin [16]
  Kd: 68.7 nM
  koff: 0.000367 s⁻¹
  kon: 5340 M⁻¹ s⁻¹
Human serum albumin [17]
  Kd: 67.1 nM
  koff: 0.000324 s⁻¹
  kon: 4820 M⁻¹ s⁻¹
Human PCSK9 [18]
  Kd: 0.404 nM
  koff: 0.000118 s⁻¹
  kon: 289000 M⁻¹ s⁻¹
Human PCSK9 [19]
  Kd: 0.902 nM
  koff: 0.000148 s⁻¹
  kon: 161000 M⁻¹ s⁻¹
Human PCSK9 [20]
  IC50: 5.88 nM
Mouse serum albumin [21]
  Kd: 35 nM
  koff: 0.000407 s⁻¹
  kon: 11600 M⁻¹ s⁻¹
Rhesus serum albumin [22]
  Kd: 75.4 nM
  koff: 0.000405 s⁻¹
  kon: 5380 M⁻¹ s⁻¹
Human serum albumin [23]
  Kd: 83.9 nM
  koff: 0.000387 s⁻¹
  kon: 4610 M⁻¹ s⁻¹

B4: PCSK9-PKE2 tandem 4472_E06 (designed binder)
PCSK9 domain: MGVSDVPRDLEVVAATPTSLLISWDAPAEGYGYYRITYGETGGNSPVQEFTVPVSKGTATISGLKPGVDYTITVYAVEFDFPGAGYYHRPISINYRTE
PKE2 domain: GVSDVPRDLEVVAATPTSLLISWDAPAVTVRYYRITYGREVQKYSDLGPLYIYQEFTVPGSKSTATISGLKPGVDYTITVYAVTGSGESPASSKPISINYRTEHHHHHH
modifications: The real molecule is ONE polypeptide: PCSK9 domain, undisclosed linker I (a code letter), PKE2 domain. It is given here as two chains because the linker letters are unknown.
notes: also called 4427_E06; not shown: The inter-domain linker
Mouse serum albumin [7]
  EC50: 4.2 nM
Rhesus serum albumin [8]
  EC50: 40.1 nM
Human serum albumin [9]
  EC50: 67.3 nM
Human PCSK9 [10]
  IC50: 7.67 nM
Human PCSK9 [14]
  IC50: 1.6 nM
Mouse serum albumin [15]
  Kd: 20 nM
  koff: 0.0003 s⁻¹
  kon: 15000 M⁻¹ s⁻¹
Rhesus serum albumin [16]
  Kd: 71.9 nM
  koff: 0.000415 s⁻¹
  kon: 5770 M⁻¹ s⁻¹
Human serum albumin [17]
  Kd: 68.4 nM
  koff: 0.000362 s⁻¹
  kon: 5300 M⁻¹ s⁻¹
Human PCSK9 [18]
  Kd: 0.724 nM
  koff: 0.0002 s⁻¹
  kon: 281000 M⁻¹ s⁻¹
Mouse serum albumin [24]
  Kd: 26.1 nM
  koff: 0.000362 s⁻¹
  kon: 14100 M⁻¹ s⁻¹
Rhesus serum albumin [25]
  Kd: 65.4 nM
  koff: 0.000408 s⁻¹
  kon: 6240 M⁻¹ s⁻¹
Human serum albumin [26]
  Kd: 64.9 nM
  koff: 0.000383 s⁻¹
  kon: 5910 M⁻¹ s⁻¹
Human PCSK9 [19]
  Kd: 1 nM
  koff: 0.000209 s⁻¹
  kon: 207000 M⁻¹ s⁻¹
Human PCSK9 [20]
  IC50: 5.68 nM
Mouse serum albumin [27]
  Kd: 114 nM
  koff: 0.00152 s⁻¹
  kon: 13400 M⁻¹ s⁻¹
Rhesus serum albumin [28]
  Kd: 91.1 nM
  koff: 0.000788 s⁻¹
  kon: 8640 M⁻¹ s⁻¹
Human serum albumin [29]
  Kd: 35.2 nM
  koff: 0.000478 s⁻¹
  kon: 13600 M⁻¹ s⁻¹
Mouse serum albumin [30]
  Kd: 21.8 nM
  koff: 0.00033 s⁻¹
  kon: 15200 M⁻¹ s⁻¹
Rhesus serum albumin [31]
  Kd: 64.9 nM
  koff: 0.000332 s⁻¹
  kon: 5110 M⁻¹ s⁻¹
Human serum albumin [32]
  Kd: 61.4 nM
  koff: 0.000292 s⁻¹
  kon: 4760 M⁻¹ s⁻¹

B5: PCSK9-PKE2 tandem 4472_D06 (designed binder)
PCSK9 domain: MGVSDVPRDLEVVAATPTSLLISWDAPAEGYGYYRITYGETGGNSPVQEFTVPVSKGTATISGLKPGVDYTITVYAVEFDFPGAGYYHRPISINYRTE
PKE2 domain: GVSDVPRDLEVVAATPTSLLISWDAPAVTVRYYRITYGREVQKYSDLGPLYIYQEFTVPGSKSTATISGLKPGVDYTITVYAVTGSGESPASSKPISINYRTEHHHHHH
notes: not shown: The inter-domain linker; In the real molecule the two parts below are one polypeptide joined by this linker
Mouse serum albumin [7]
  EC50: 15.6 nM
Rhesus serum albumin [8]
  EC50: 93.1 nM
Human serum albumin [9]
  EC50: 139 nM
Human PCSK9 [10]
  IC50: 8.12 nM
Human PCSK9 [14]
  IC50: 1.8 nM
Human PCSK9 [20]
  IC50: 6.51 nM

B6: PCSK9-PKE2 tandem 4472_A04 (designed binder)
PCSK9 domain: MGVSDVPRDLEVVAATPTSLLISWDAPAEGYGYYRITYGETGGNSPVQEFTVPVSKGTATISGLKPGVDYTITVYAVEFDFPGAGYYHRPISINYRTE
PKE2 domain: GVSDVPRDLEVVAATPTSLLISWDAPAVTVRYYRITYGREVQKYSDLGPLYIYQEFTVPGSKSTATISGLKPGVDYTITVYAVTGSGESPASSKPISINYRTEHHHHHH
notes: as for B5
Mouse serum albumin [7]
  EC50: 16.7 nM
Rhesus serum albumin [8]
  EC50: 84 nM
Human serum albumin [9]
  EC50: 144 nM
Human PCSK9 [10]
  IC50: 5.14 nM
Human PCSK9 [14]
  IC50: 1.1 nM
Human PCSK9 [20]
  IC50: 4.44 nM
